According to US8697369B2, “Method for screening a test substance for activating a receptor associated with FGF 21 activity” (National Institute of Advanced Industrial Science and …, priority 2007, dated 2014):

Molecular target: T1, betaKlotho-expressing BaF3 cells (Mus musculus, UniProt Q99N32)
T1 construct: the entire-length cDNA of mouse betaKlotho was cloned into an animal cell expression vector; expressed in transfected cells; host or cells: BaF3 (mouse pro-B) cells
T1 sequence (Q99N32 1-1043): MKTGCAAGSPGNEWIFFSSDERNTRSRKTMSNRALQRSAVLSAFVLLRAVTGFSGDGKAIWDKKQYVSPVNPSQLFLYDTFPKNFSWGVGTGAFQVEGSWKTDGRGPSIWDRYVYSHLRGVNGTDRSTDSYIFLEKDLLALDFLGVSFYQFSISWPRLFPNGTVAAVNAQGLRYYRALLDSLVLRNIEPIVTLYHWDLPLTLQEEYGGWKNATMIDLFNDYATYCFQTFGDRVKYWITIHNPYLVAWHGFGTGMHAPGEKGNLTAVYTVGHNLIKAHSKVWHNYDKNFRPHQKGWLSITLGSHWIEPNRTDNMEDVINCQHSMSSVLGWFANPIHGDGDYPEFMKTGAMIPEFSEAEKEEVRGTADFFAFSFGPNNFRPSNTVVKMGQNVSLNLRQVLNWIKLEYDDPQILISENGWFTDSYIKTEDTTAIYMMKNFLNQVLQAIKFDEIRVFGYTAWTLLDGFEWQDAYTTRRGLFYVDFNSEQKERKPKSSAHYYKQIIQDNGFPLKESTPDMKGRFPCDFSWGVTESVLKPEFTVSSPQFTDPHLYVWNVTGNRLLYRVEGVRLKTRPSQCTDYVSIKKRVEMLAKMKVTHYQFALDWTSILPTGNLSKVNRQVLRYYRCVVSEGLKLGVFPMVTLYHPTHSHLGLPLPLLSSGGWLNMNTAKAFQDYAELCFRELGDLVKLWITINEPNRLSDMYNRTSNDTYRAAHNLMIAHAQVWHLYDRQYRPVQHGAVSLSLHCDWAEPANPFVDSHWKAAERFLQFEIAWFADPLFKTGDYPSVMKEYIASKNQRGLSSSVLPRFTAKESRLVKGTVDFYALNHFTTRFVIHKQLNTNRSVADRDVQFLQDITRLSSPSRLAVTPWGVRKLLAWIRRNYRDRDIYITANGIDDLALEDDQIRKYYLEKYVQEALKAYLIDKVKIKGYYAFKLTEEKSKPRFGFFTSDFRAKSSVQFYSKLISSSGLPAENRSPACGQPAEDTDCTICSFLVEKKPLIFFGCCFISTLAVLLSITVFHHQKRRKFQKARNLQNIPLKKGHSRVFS
Experiment: DNA synthesis (thymidine incorporation) in BaF3 cells expressing only betaKlotho
Type: cell-based
Details: presence or absence of heparin
Experimental: A commonly used measurement method is a cell growth stimulating activity measurement method described in Ornitz, D. M., Xu, J., Colvin, J. S., McEwen, D. G., MacArthur, C. A., Coulier, F., Gao, G. and Goldfarb, M. (1996) Receptor specificity of the fibroblast growth factor family. J Biol Chem, 271, 15292-15297. The summary thereof is as follows. FGF used as a measurement target is added to a culture solution containing a cultured cell having an FGF receptor on the surface thereof, and the obtained mixture is cultured for a certain period of time. Thereafter, a labeled thymidine is added to the culture solution, followed by further culture for a certain period of time. By measuring the amount of the labeled thymidine incorporated into polymeric DNA during the culture, the degree of FGF to activate DNA synthesis is evaluated. (In the present invention as well, this method was adopted when the activity of FGF21 was measured in Examples 4, 5, 6, 8, 9, and 10.) […]
Immediately after inoculation, BaF3 cells that had expressed each clone and only FGFR1c were stimulated by addition of FGF21 (open bar) or PBS (filled bar) used as a control in the presence of heparin, and they were then cultured for 42 hours. […] Thereafter, the amount of thymidine incorporated into the cells was measured, so as to evaluate DNA synthesis. […]

- DNA synthesis (thymidine incorporated into the cells): did not react with FGF21
B1: FGF21: fibroblast growth factor 21; mouse-derived protein used in Examples 1-7 and 10-13 (protein)
chain: AYPIPDSSPLLQFGGQVRQRYLYTDDDQDTEAHLEIREDGTVVGAAHRSPESLLELKALKPGVIQILGVKASRFLCQQPDGALYGSPHFDPEACSFRELLLEDGYNVYQSEAHGLPLRLPQKDSPNQDATSWGPVRFLPMPGLLHEPQDQAGFLPPEPPDVGSSDPLSMVEPLQGRSPSYAS
